System: 3-ketomyristoyl-ACP (enzymatically prepared from ShACP)

ShMKS2 (methylketone synthase 2 from Solanum habrochaites f glabratum), recombinant, without the transit peptide, His-tagged, sequence (chain, as listed by the source): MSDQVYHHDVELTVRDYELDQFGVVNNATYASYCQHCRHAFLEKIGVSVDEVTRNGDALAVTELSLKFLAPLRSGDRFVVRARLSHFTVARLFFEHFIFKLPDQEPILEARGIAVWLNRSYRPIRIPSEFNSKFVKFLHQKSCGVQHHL

## ShMKS2 (methylketone synthase 2 from Solanum habrochaites f glabratum), recombinant, without the transit peptide, His-tagged
  amount of 2-tridecanone formed (in vitro thioesterase activity assay, acid and heat treatment, GC-MS): approximately 3-fold higher than levels found in buffer-incubated substrate solution treated with acid and heat

Reference: US20110289632
